The target in assay [1] is T1, Bak (expressed in yeast, used as lysate) (Homo sapiens (Human), UniProt Q16611 1-211, limits assumed).
T1 construct: also called full-length Bak
T1 sequence: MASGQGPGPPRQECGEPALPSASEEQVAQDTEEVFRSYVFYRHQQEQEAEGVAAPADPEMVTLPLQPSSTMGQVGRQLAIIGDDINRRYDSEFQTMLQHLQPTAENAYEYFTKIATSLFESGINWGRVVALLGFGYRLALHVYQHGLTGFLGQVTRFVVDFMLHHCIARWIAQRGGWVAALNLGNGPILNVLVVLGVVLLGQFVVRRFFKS
In words: GST fusion on glutathione-Sepharose column, yeast lysate expressing Bak, Western blot.

Assay [2] has as its target T2, BBP expressed as a fusion protein with the binding domain (BD) of GAL4 (yeast; human, UniProt P04386 1-147).
T2 construct: range 1-147; also called BBP-BD
The assay is described as follows: yeast two hybrid (GAL4 AD and BD fusions).

Assay [3] deals with T3, Bak expressed as a fusion protein with the binding domain (BD) of GAL4 (yeast, UniProt P04386 1-147).
T3 construct: range 1-147; Yeast two-hybrid bait; also called GAL4-Bak fusion protein
The assay is described as follows: yeast two hybrid (GAL4 AD and BD fusions).

Assay [4] concerns the target Bcl2 expressed as a fusion protein with the binding domain (BD) of GAL4 (yeast, UniProt P04386 1-147; P10415 1-239, limits assumed). The assay is described as follows: yeast two hybrid.
The target of assay [5] is Bax expressed as a fusion protein with the binding domain (BD) of GAL4 (yeast, UniProt P04386 1-147; Q07812 1-192, limits assumed). In words: yeast two hybrid.
In assay [6] the target is T4, BakΔ3 (N-terminal deletion mutant of Bak, amino acids 96-210 of full-length Bak) (Homo sapiens (Human), UniProt Q16611 96-211).
T4 construct: Produced in Sf9 cells by baculovirus and used as an NP-40 cell extract
T4 sequence: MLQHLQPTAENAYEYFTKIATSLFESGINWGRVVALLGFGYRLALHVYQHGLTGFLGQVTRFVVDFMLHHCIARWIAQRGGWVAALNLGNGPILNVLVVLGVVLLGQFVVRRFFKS
In words: GST pull-down from Sf9 extract, immunoblot with anti-Bak.

Where no end group is shown, it is not given here.

B1: gst fusion protein containing full-length BHRF-1 (other)
chain: MAYSTREILLALCIRDSRVHGNGTLHPVLELAARETPLRLSPEDTVVLRYHVLLEEIIERNSETFTETWNRFITHTEHVDLDFNSVFLEIFHRGDPSLGRALAWMAWCMHACRTLCCNQSTPYYVVDLSVRGMLEASEGLDGWIHQQGGWSTLIEDNIPGSRRFSWTLFLAGLTLSLLVICSYLFISRGRH
notes: not shown: glutathione-S-transferase (gst)
For the molecule B1, the binding result in assay [1] is listed as “binds”.

B2: gst fusion protein containing BBP-Loop1 (N-terminal 42 amino acid portion of BBP) (other)
chain: MAASSQGNFEGNFESLDLAEFAKKQPWWRKLFGQESGPSAEK
modifications: not fully specified (N-terminus); also: fused to glutathione-S-transferase (GST), not in chain
notes: It was subcloned into pGEX-5X in frame with gst; also called BBP-L1; gst-BBP-L1; not shown: glutathione-S-transferase (gst) as encoded by vector pGEX-5X (Pharmacia)
As to B2, the binding result in assay [1] is given as “binds”.

B3: BBP expressed as a fusion protein with the activation domain (AD) of GAL4 (other, yeast)
chain: ANFNQSGNIADSSLSFTFTNSSNGPNLITTQTNSQALSQPIASSNVHDNFMNNEITASKIDDGNNSKPLSPGWTDQTAYNAFGITTGMFNTTTMDDVYNYLFDDEDTPPNPKKEMAASSQGNFEGNFESLDLAEFAKKQPWWRKLFGQESGPSAEKYSVATQLFIGGVTGWCTGFIFQKVGKLAATAVGGGFFLLQLANHTGYIKVDWQRVEKDMKKAKEQLKIRKSNQIPTEVRSKAEEVVSFVKKNVLVTGGFFGGFLLGMAS
notes: range 768-881; Yeast two-hybrid prey; also called BBP-AD
Consider B3, for which the binding result is “binds” in assay [2], “binds” in assay [3], “no binding” in assay [4] and “no binding” in assay [5].

B4: gst fusion protein containing BBP-Loop2 (internal loop of BBP, amino acids 86 through 133) (other)
chain: HTGYIKVDWQRVEKDMKKAKEQLKIRKSNQIPTEVRSKAEEVVSFVKK
modifications: not fully specified (N-terminus); also: fused to glutathione-S-transferase (GST), not in chain
notes: It was subcloned into pGEX-5X in frame with gst; also called BBP-L2; gst-BBP-L2; not shown: glutathione-S-transferase (gst) as encoded by vector pGEX-5X (Pharmacia)
In the case of B4, the binding result in assay [1] is on record as “binds”; in assay [6], “no binding”.

These data come from patent US7316915 (TANOX, dated 2008).
